Reference: patent publication US20260078342A1

Biological target: CD16 (FcγRIIIa/CD16a), high affinity variant with valine at amino acid 176, expressed on haNK003 cells (human) (UniProt P08637)
Assay: cell-based or functional assay

UniProt P08637, sequence (P08637 other isoform, or with tags, fused parts or gaps mutant limits assumed): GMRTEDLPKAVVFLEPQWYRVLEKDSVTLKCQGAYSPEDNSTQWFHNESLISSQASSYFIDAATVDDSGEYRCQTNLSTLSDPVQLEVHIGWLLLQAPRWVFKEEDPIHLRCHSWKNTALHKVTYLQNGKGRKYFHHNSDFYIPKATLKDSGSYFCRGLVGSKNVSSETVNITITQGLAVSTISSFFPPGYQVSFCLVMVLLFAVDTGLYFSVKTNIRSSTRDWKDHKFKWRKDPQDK

Rituximab (antibody)
ADCC assay (specific lysis), haNK003 at 1:1 E:T Ratio with Rituxan (3.3 µg/mL) vs DOHH2: 52.8%
